From publication PMC10786891, “Massively parallel profiling of RNA-targeting CRISPR-Cas13d”
Substitutions are numbered along the chain they refer to. Names may count otherwise.

T1: EsCas13d, nuclease-dead (Eubacterium siraeum, UniProt B0MS50, R295A;H300A;R849A;H854A)
T1 sequence: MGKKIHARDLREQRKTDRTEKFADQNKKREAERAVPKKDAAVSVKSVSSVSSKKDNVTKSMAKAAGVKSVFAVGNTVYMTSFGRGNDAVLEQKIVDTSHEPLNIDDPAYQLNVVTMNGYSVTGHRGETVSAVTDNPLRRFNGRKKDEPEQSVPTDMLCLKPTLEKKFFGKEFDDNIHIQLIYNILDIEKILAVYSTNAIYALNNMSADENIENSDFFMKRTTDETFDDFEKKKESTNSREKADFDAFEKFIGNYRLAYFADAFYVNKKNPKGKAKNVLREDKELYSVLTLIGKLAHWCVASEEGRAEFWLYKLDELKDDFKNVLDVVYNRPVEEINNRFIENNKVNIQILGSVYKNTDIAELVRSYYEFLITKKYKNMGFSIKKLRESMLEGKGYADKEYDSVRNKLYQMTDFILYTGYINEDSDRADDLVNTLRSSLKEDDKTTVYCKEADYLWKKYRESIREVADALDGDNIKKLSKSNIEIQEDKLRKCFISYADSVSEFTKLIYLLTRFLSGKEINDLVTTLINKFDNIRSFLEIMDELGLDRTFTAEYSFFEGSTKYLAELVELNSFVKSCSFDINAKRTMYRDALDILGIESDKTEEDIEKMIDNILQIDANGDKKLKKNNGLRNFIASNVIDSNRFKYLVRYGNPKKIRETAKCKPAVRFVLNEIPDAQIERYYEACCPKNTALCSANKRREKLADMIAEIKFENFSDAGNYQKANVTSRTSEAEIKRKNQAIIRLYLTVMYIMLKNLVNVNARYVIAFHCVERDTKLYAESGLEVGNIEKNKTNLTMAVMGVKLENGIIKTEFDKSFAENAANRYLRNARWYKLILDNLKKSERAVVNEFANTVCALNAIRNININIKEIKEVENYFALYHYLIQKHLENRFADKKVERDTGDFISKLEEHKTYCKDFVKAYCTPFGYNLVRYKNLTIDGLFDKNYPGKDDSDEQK

B1: target 1 insG 3' of 2,insC 3' of 1 (mixed)
RNA 1: CACCCGUGCAAAAAUGCAGGGGUCUAAAACUGAGCGGAUAACCUCUCUAUGG
RNA 2: GGGAAUGGAUCCACAUCUACGAAUUCGUACCAUAGAGAGGUUAUCCGCUCGACCCGAGAUCGGAAGAGCACACGU
B2: target 1 insA 3' of 19,insC 3' of 14 (mixed)
RNA 1: B1 RNA 1
RNA 2: GGGAAUGGAUCCACAUCUACGAAUUCGUACCAUAAGAGACGGUUAUCCGCUCACCGAGAUCGGAAGAGCACACGU
B3: target 1 insC 3' of 19,insG 3' of 7 (mixed)
RNA 1: B1 RNA 1
RNA 2: B2 RNA 2 with A34C, C40G, G42U, U44A, A45U, U46C, C47G
B4: target 1 insA 3' of 21,insU 3' of 15 (mixed)
RNA 1: B1 RNA 1
RNA 2: B2 RNA 2 with U33A, A34U, A39U, C40A
B5: target 1 C2U,G13U (mixed)
RNA 1: B1 RNA 1
RNA 2: GGGAAUGGAUCCACAUCUACGAAUUCGUACCAUAGAGAUGUUAUCCGCUUACCGAGAUCGGAAGAGCACACGU
B6: target 1 U8A,U11G (mixed)
RNA 1: B1 RNA 1
RNA 2: B5 RNA 2 with U39G, U41G, U44A, U50C
B7: target 1 insG 3' of 11,insA 3' of 7 (mixed)
RNA 1: B1 RNA 1
RNA 2: B1 RNA 2 with U42G, A43U, U44A, C45U, G47A, U49G, G51U, A52C, C53A
B8: target 1 insA 3' of 17,insG 3' of 11 (mixed)
RNA 1: B1 RNA 1
RNA 2: B2 RNA 2 with A35G, G36A, C40G, G42U, U43G
B9: target 1 del2,del9 (mixed)
RNA 1: B1 RNA 1
RNA 2: GGGAAUGGAUCCACAUCUACGAAUUCGUACCAUAGAGAGGUUUCCGCUACCGAGAUCGGAAGAGCACACGU
B10: target 1 C7U,A20U (mixed)
RNA 1: B1 RNA 1
RNA 2: B5 RNA 2 with A32U, U39G, C45U, U50C
B11: target 1 insG 3' of 20,insG 3' of 7 (mixed)
RNA 1: B1 RNA 1
RNA 2: B2 RNA 2 with U33G, A34U, C40G, G42U, U44A, A45U, U46C, C47G
B12: target 1 insA 3' of 21,insG 3' of 8 (mixed)
RNA 1: B1 RNA 1
RNA 2: B2 RNA 2 with U33A, A34U, C40G, G42U, U44A, A45U, U46G
B13: target 1 U3C,C6A (mixed)
RNA 1: B1 RNA 1
RNA 2: B5 RNA 2 with U39G, C46A, U49C, U50C
B14: target 1 complement block 7-13 (mixed)
RNA 1: B1 RNA 1
RNA 2: B5 RNA 2 with U39C, G40C, U41A, U42A, A43U, U44A, C45G, U50C
B15: target 1 insU 3' of 21,insU 3' of 1 (mixed)
RNA 1: B1 RNA 1
RNA 2: GGGAAUGGAUCCACAUCUACGAAUUCGUACCUAUAGAGAGGUUAUCCGCUCAUCCGAGAUCGGAAGAGCACACGU
B16: target 1 C6U,A14C (mixed)
RNA 1: B1 RNA 1
RNA 2: B5 RNA 2 with A38C, U39G, C46U, U50C
B17: target 1 insG 3' of 22,insG 3' of 3 (mixed)
RNA 1: B1 RNA 1
RNA 2: B15 RNA 2 with C31G, U32C, C51G, A52C, U53A
B18: target 1 insG 3' of 14,insG 3' of 4 (mixed)
RNA 1: B1 RNA 1
RNA 2: GGGAAUGGAUCCACAUCUACGAAUUCGUACCAUAGAGAGGGUUAUCCGCGUCACCGAGAUCGGAAGAGCACACGU
B19: target 1 insU 3' of 14 (mixed)
RNA 1: B1 RNA 1
RNA 2: GGGAAUGGAUCCACAUCUACGAAUUCGUACCAUAGAGAUGGUUAUCCGCUCACCGAGAUCGGAAGAGCACACGU
B20: target 1 C2A,G5A (mixed)
RNA 1: B1 RNA 1
RNA 2: B5 RNA 2 with U39G, G47A, U50A
B21: target 1 insG 3' of 22,insU 3' of 21 (mixed)
RNA 1: B1 RNA 1
RNA 2: B2 RNA 2 with C31G, A32C, A35U, G36A, A37G, G38A, A39G, C40A
B22: target 1 insC 3' of 12,insC 3' of 3 (mixed)
RNA 1: B1 RNA 1
RNA 2: B18 RNA 2 with G41C, G50U, U51C
B23: target 1 U3A,C6G (mixed)
RNA 1: B1 RNA 1
RNA 2: B5 RNA 2 with U39G, C46G, U49A, U50C
B24: target 1 C7U,U10A (mixed)
RNA 1: B1 RNA 1
RNA 2: B5 RNA 2 with U39G, U42A, C45U, U50C
B25: target 1 U3C,U8C (mixed)
RNA 1: B1 RNA 1
RNA 2: B5 RNA 2 with U39G, U44C, U49C, U50C
B26: target 1 insC 3' of 10,insG 3' of 7 (mixed)
RNA 1: B1 RNA 1
RNA 2: B18 RNA 2 with G41U, U43C, C47G, G48C, C49G, G50C
B27: target 1 insU 3' of 17,insA 3' of 8 (mixed)
RNA 1: B1 RNA 1
RNA 2: B2 RNA 2 with A35G, G36U, C40G, G42U, U44A, A45U, U46A
B28: target 1 insA 3' of 13,insA 3' of 10 (mixed)
RNA 1: B1 RNA 1
RNA 2: B18 RNA 2 with G40A, U45A, C46U, G48C, C49G, G50C
B29: target 1 insA 3' of 13,insC 3' of 9 (mixed)
RNA 1: B1 RNA 1
RNA 2: B18 RNA 2 with G40A, U45C, C46U, G48C, C49G, G50C
B30: target 1 insA 3' of 10,insC 3' of 9 (mixed)
RNA 1: B1 RNA 1
RNA 2: B18 RNA 2 with G41U, U43A, U45C, C46U, G48C, C49G, G50C
B31: target 1 insC 3' of 20,insU 3' of 17 (mixed)
RNA 1: B1 RNA 1
RNA 2: B2 RNA 2 with U33C, A34U, A37U, G38A, A39G, C40A
B32: target 1 insU 3' of 22,insA 3' of 15 (mixed)
RNA 1: B1 RNA 1
RNA 2: B2 RNA 2 with C31U, A32C, U33A, A34U, C40A
B33: target 1 insG 3' of 18,insA 3' of 3 (mixed)
RNA 1: B1 RNA 1
RNA 2: B18 RNA 2 with A36G, G37A, A38G, G39A, G50U, U51A
B34: target 1 G13A,A20C (mixed)
RNA 1: B1 RNA 1
RNA 2: B5 RNA 2 with A32C, U39A, U50C

molecular target: T1, EsCas13d, nuclease-dead; assay: crRNA (strand 1, pre-loaded); Mg2+; 40 mM Tris-HCl pH 7.5, 150 mM NaCl, 6 mM MgCl2, 1 mM DTT, 0.1% Tween-20, 0.2 mg/ml BSA; 25 C; 10 min per concentration, then washed; conditions: tags: His6-TwinStrep-SUMO cleaved; N-terminal SNAP kept (SNAP-Surface 488); label: 3' end held by stalled T7 RNA polymerase

Binder | Kd
B1 | 10.4 ± 1.3 nM
B2 | ~70 nM
B3 | 24.1 ± 1.3 nM
B4 | 31.6 ± 3.5 nM
B5 | 68 ± 20 nM
B6 | 12.7 ± 0.5 nM
B7 | 21.7 ± 1.8 nM
B8 | 86 ± 21 nM
B9 | 63 ± 9 nM
B10 | 41.2 ± 3.4 nM
B11 | 29 ± 5 nM
B12 | 29.8 ± 2.8 nM
B13 | 14.2 ± 1.5 nM
B14 | 79 ± 16 nM
B15 | 24.2 ± 1.8 nM
B16 | 20 ± 1 nM
B17 | 21.5 ± 2.1 nM

Binder | Kd
B18 | 7.5 ± 0.8 nM
B19 | 38 ± 4 nM
B20 | 31.6 ± 3.2 nM
B21 | 30 ± 2.5 nM
B22 | 12.3 ± 2.6 nM
B23 | 5.27 ± 0.15 nM
B24 | 7.8 ± 0.4 nM
B25 | 13.4 ± 0.6 nM
B26 | 16.8 ± 1.4 nM
B27 | 24.6 ± 1.5 nM
B28 | 4.3 ± 0.5 nM
B29 | 8 ± 0.4 nM
B30 | 14.4 ± 0.5 nM
B31 | 16.9 ± 2.2 nM
B32 | 13.7 ± 3.1 nM
B33 | 49.3 ± 3.1 nM
B34 | 75 ± 29 nM
